Test: soluble on expression in E. coli; label from the status in PepcDB or PDB records

Sequence	soluble on expression in E. coli
MIRSATKEDGQAIARLVLVILKDMELPILEEVSEEQMIDLLAEATAYPTYRYGYQRILVYEHAGEVAGIAVGYPAEDEKIIDEPLREVFKKHGLAEDVRLFIEEETLPNEWYLDTISVDERFRGMGIGSKLLDALPEVAKASGKQALGLNVDFDNPGARKLYASKGFKDVTTMTISGHLYNHMQKEV	not soluble
NKLAQKYDHQREQELREWIEGVTGRRIGNNFMDGLKDGIILCEFINKLQPGSVKKINESTQNWHQLENIGNFIKAITKYGVKPHDIFEANDLFENTNHTQVQSTLLALASMAKTKGNKVNVGV	soluble
MQQNTSLYDSLNVTAAASTSEIKKAYRNAALKYHPDKNNHTEESKRKFQEICQAYEILKDNRLRALYDQYGTTDEVLIQEQQAQAQRQQAGPFSSSSNFDTEAMSFPDLSPGDLFAQFFNSSATPSSNGSKSSFNFSFNNSSTPSFSFVNGSGVNNLYSSSAKYNSNDEDHHLDRGPDIKHNLKCTLKELYMGKTAKLGLNRTRICSVCDGHGGLKKCTCKTCKGQGIQTQTRRMGPLVQSWSQTCADCGGAGVFVKNKDICQQCQGLGFIKERKILQVTVQPGSCHNQLIVLTGEGDEVISTKGGGHEKVIPGDVVITILRLKDPNFQVINYSNLICKKCKIDFMTSLCGGVVYIEGHPSGKLIKLDIIPGEILKPGCFKTVEDMGMPKFINGVRSGFGHLYVKFDVTYPERLEPENAKKIQNILANDKYIKAERSTMETADSDCYCDLEKSYDSVEEHVLSSFEAPNLNNEVIEDDDLGDLINERDSRKRNNRRFDESNINNNNETKRNKYSSPVSGFYDHDINGY	not soluble
MIFYFSGTGNSKWIANQLSKEQQEDLFFIPDAWKNDTWEFSLREDEKIGFVFPVYSWAPPVIVQEFIRKLVLKGYQQQYLFFVCSCGDDTGLTRQVMEKALAARGWRCNAGFSVIMPNNYVLFLGFDVDSKELEKKKLAEAVPALEKVSRLITGRETVFACKEGSLPFIKTRIINPLFVRYQMSPKPFHATSECIGCKRCEKSCPVGNITMKERRPVWGKNCTACLACYHVCPQHAVQYGKKTKGKGHYFNPDSAYLEHHHHHH	soluble
SLSTIGSMMSIYSEAGDFGNIFVTGRIAFSLKYEQQTQSLVVHVKECHQLAYADEAKKRSNPYVKTYLLPDKSRQGKRKTSIKRDTVNPLYDETLRYEIPESLLAQRTLQFSVWHHGRFGRNTFLGEAEIQMDSWKLDKKLDHCLPLHGKISAESPTGLPSHKGELVVSLKYIPASKTPVGGDRKKSKGGEGGELQVWIKEAKNLTAAKAGGTSDSFVKGYLLPMRNKASKRKTPVMKKTLNPHYNHTFVYNGVRLEDLQHMCLELTVWDREPLASNDFLGGVRLGVGTGISNGEVVDWMDSTGEEVSLWQKMRQYPGSWAEGTLQLRSSMAKQKLG	soluble
MELGLYTFADVNPNPADGRGPEGARRLRELLEEIELADQVGLDVFGLGEHHRPDYVVSSPSTVLAAAAVKTKNIRLTSAVSVLSSDDPVRVFQQFSTVDLLSNGRAEIMAGRGSFIESYPLFGYDLEDYDVLFAEKLDLLLALREQEVVTWSGTKHPAINGRGVYPRPLQERLPVWIAVGGTPQSVARAGAMGLPVALAIIGGEYRRFAPLFDLYHEAARRAGQEKTKLRTSINVHGFIADTTDKAADQFYGPQAEVMNRIGRERGWGPTNRAHFDAARGPEGNLFLGEPELVAEKIIKAHGVFKNDRFLLQMAIGLMPHDQIMRGIELYGTKVAPLVRKELTGSADPVKATA	soluble
MLQLTLESSFSNTLTVSELNSYVKSTLEEDFLLKRACIKGEISNCTLHKSGHVYFTLKDENSAIDCVMFKPYTKKLDFSPAEGMSVIIKGKVSLYTKTGKYQFYCNEMEKEGLGDLFIKFKKLKEKLESEGLFNEEYKQKIPKYPKNIGIITSPTGAAIRDIIKVTRNRNSSVNLIIYPAVVQGESAAKTVISGISELNKLEKIDLIIIARGGGSMEDLWCFNNESLARAIFESKKPVITGIGHETDFTISDFVSDLRAATPSNAAEIAIYNEYELKSMINNLERMLKNRMKTEISNRSYELDILYSKIEKNSPKSKIEKQKVHVDKIRAQMNHEIKNKISYEVKRFEKSYSLLNAYNPLNVLNKGYSIIQDENEKIISSKSSLNLENDVKITLKDGTVDAHITLKE	not soluble
MNQKDVKLTVFSSDEKSFMVTATLVEKAGHAFLINSKFTQSDSKEIVEYLKKNNLSLDKIFIIHGDPDYYFGLESIKAVYPEAIAYATESTVEHIVHSVLGKLKVWKDALGENAPSNVVLPQVFKEKAIDFQGLTFELVGLEHYRTSLFNKELKVLIGGIDVFNEIHVFLADTSSKAAMEAWIENLKVLQALHADIIVPSHGSIEKSLNNQALTATMDYLRTAVQASEESGTSKDFVAKLEAAYPDYANKGVLELSAKVVTKELEHHHHHH	not soluble
MSLVDHVHFERELTLLKSDVSKMLFLVSESLNDAIESLETMNETLARKVLESDDMIDELNREIEEKAYQIIARYNPILKQLRYIITILKFSNDLERIGDLSCNIAEKCLFLSEEKIKFEMLKELKDMFGSTLKVVQDAFKAFVEEDVDLAFRLWKFDDVIDEMEKKIRRIVVERIREGNISAELALVYILIARDLERVGDHANNLCEEVIYIETGKNMKEFLRGVESGSEGADSEGGSHHHHHH	soluble
MTNDFATVLRQFVEGLDLGIKPRLDYLTRQEDLAIYPMPGGKVNNEYMDGTREISLPFEIAIKTKNQELASTVMWTINSALSNFDLKLPSLNHSYTFISLDVEKPFLNDLSDQGFYIYVLDITAHLEIEGNN	soluble
VSIYLKPIINKLTPESRNTLDSAINYAISRSHHEVDCLHLLWKLLQEHKYIAEVLYEQSLFNPEWVLNAIESELIRINTVPQSSPVFSESMQTLLEKTWIHASTKWQIDHIDIPVFLSTMINFRDSIFPLNVSDALCCDMDVAEELLISFSDEAEHSASHRPTDRSSHEYLSKYTENLSLRAETGKLDPVTGREKEVRQLIDILLRRRQNNPILTGEPGVGKSSIVEGLALQIASGRVPDVLKNVRIHALDMGALLAGASVRGEFENRLKSLLTELNSLDGTAILFIDEAHSLIGAGGLPGQTDAANLLKPALARGELRIIAATTWGEYKKYFEKDGALARRFQIVKVAEPNQDVTAEMLRSLLPMMEKHHNVSIREEAITATVHLSDRYLHGRRQPDKSVSLLDTACSRVAVSQSTSPDAIQDVEASLVRYQGELALLTQERSDVLRQEMLANKIAQLEEELEQLKSAWRHQSELVAKIQSSDDISSKNMYRKELESAYKKDSPMVFECVDKNCVADVVSGWTGVPLGVCLDGEQQKASGLLRCLEQRVLGQRYAMSAIASQVLICRADLKDPVKPDGVFLLAGPSGTGKTETARALAEFVYGDENKLITINMTEFQEAHTVSTLKGAPPGYVGFGQGGTLTERVSHNPYSVILLDEIEKAHPDVLEFFFQIFDSGIIEDAEGKMVSFRDCLIIMTSNFASENITNIWNDGETNRDRIKEMLLPLFNEHFGAAFMGRTNLIPFTPLHSKTLRDIVLIKIDKICQRFEQASGQMYKIEYNDSLIDWITHHCQCDKSGARDIDSVLNSTVLPVLARYLTDSEDNRTPKKIRISVRKNNITLRSSQFATRN	not soluble
MGSDKIHHHHHHMAAGHGVRPARVAISLYPGCAQLYLQAQRAGKAVEALETPEAHFSVLESISLEEQMLILRSVLKRSQEQREKDFELMIQAYLSGNLDKVGALDSALGVDGLPAGLWEKIRVKLLDERNMRMAERIAAAASLQPVFVAVGAAHLPGEGGLIDLLSRAGLPYLPSIASDARRRLTFMPHLPLTHARYNSSYFRRMDGLTMADRINLRPLERNDLHFVHKLNNNDTIMRYWFEEPYEAYDELVALYDRHIHDQNERRFIIELDNGELAGLVELVEINYIHRRAEFQIIIAPDYQGRGLAKSATRIAVGYAFRVLNLHKVYLVVDKENQAAIHVYEACGFEVEGRLKEEFFSNGSYRDVLRMRLLQDDYLRHVGPAPVDASVLREWQDQ	not soluble
EFVINPNGKSEVCILHEYMQRVLKVRPVYNFFECENPSEPFGASVTIDGVTYGSGTASSKKLAKNKAARATLEILIPDFVKQTSE	soluble
MGSDKIHHHHHHMILLVGGEKGGSGKSCLAQNIAVHISQKHDANVLMVDCDPQRTTSDWIQARNNDPSLKAINCIQLYGKIRNDLLSLNDRFDYVIVDCGGQDNLAMRAAMSVATYVVIPLRPKRRDLKTLPHMEDMLSTCKMVNPKMIAAIVITQCPALPSQGKRILEAKEVVESFGLRALNSVTFSRNIYDDSEESGSSVLEIDPSGKAADEIRAIADELFAIPPENSYEFN	not soluble
